Assays:
porcine uteroferrin = porcine uteroferrin (UniProt P09889)
Sequence of UniProt P09889 (P09889 22-340): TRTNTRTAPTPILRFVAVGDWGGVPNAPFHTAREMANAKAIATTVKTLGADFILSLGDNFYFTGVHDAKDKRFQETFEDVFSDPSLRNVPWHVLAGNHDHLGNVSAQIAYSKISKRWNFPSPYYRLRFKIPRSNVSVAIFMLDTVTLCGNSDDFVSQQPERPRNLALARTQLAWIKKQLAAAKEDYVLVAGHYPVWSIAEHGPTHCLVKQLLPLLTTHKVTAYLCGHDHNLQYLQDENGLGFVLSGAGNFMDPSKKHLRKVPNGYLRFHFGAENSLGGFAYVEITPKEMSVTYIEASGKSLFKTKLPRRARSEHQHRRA

bovine UDP-N-acetylglucosamine: lysosomal enzyme N-Acetylglucosamine-1-phosphotransferase
Km as acceptor for transfer of GlcNAc-1-P (cathepsin D): Kms below 20 µM
Km as acceptor for transfer of GlcNAc-1-P (RNAse B): the Km was not reached at the solubility limit of the protein (at 600 µM)
Km as acceptor for transfer of GlcNAc-1-P (porcine uteroferrin): Kms below 20 µM
